Measured values reported in patent publication US20220249814A1, “METHODS AND DEVICES FOR TREATING A DISEASE WITH BIOTHERAPEUTICS” (PROGENITY, INC., priority 2018, published 2022).
Marks after values point to notes of the source that are not given here.

Experiments:
[1] = Example 3 blood insulin pharmacokinetics after SC or intra-jejunal jet delivery; assay type: in vivo, Yorkshire female swine
Method: A total of 18 Yorkshire female swine in good health and weighing 60-70 kg each were included in this study. Swine were divided into two groups with 9 animals per group. […] A sham surgical laparotomy was performed. […] The jet delivery device was configured with the single nozzle in an axial orientation.
Swine were divided into two groups with 9 animals per group. […] In all 18 animals, a laparotomy procedure was performed to expose the abdominal cavity. Animals remained under anesthesia during the entire procedure for the PK/PD study.
For the laparotomy in group 02, a small segment of the jejunal mucosa and serosa was exposed by midline laparotomy and the jet delivery device was inserted through antimesenteric incision.
(§1) Blood samples were kept on wet ice until centrifugation and separation of plasma. […] Glucose was monitored every five (5) minutes during the study by portable glucose analyzer (StatStrip (SS) hospital glucose monitoring system (Nova Biomedical, Waltham, Mass.)). At each time point, approximate 0.1 mL of blood was drawn and immediately placed on a glucose monitoring test strip, and the whole blood glucose concentration was measured by the SS in triplicate.
The animals were anesthetized for the entire ECP.

[2] = Example 3 euglycemic clamp pharmacodynamics (blood glucose, dextrose infusion rate); assay type: in vivo, Yorkshire female swine
Method: as §1
A euglycemic clamp procedure (ECP) was employed to compare pharmacokinetics and pharmacodynamics of regular human Insulin (NOVOLIN® R) delivered subcutaneously (SC) in the neck versus intra-jejunally (IJ) by the jet delivery device in the small intestine. ECP was used to quantify the amount of glucose required to maintain normoglycemia after exogenous bolus of insulin. […] The animals were anesthetized for the entire ECP.

[3] = Example 6 dulaglutide plasma pharmacokinetics, ID via 2-nozzle device vs IV vs SC; assay type: in vivo, female Yorkshire pigs (Sus scrofa domesticus)
Description: The study design is shown below in Table 35.
Blood samples were kept on wet ice until centrifugation. […] All samples were maintained chilled throughout processing.

[4] = baseline dose, Admin. SC (Table 17); cited from earlier work
[5] = IJ administration by jet delivery device (~40 U), Average of animals
[6] = IJ administration by jet delivery device (~40 U), animal 18P17
[7] = IJ administration by jet delivery device (~40 U), animal 18P22
[8] = IJ administration by jet delivery device (~40 U), animal 18P23
[9] = IJ administration by jet delivery device (~40 U), animal 18P25
[10] = IJ administration by jet delivery device (~40 U), animal 18P28
[11] = IJ administration by jet delivery device (~40 U), animal 18P33
[12] = IJ administration by jet delivery device (~40 U), animal 18P36
[13] = SC administration, animal 18P15
[14] = SC administration, animal 18P16
[15] = SC administration, animal 18P19
[16] = SC administration, animal 18P20
[17] = SC administration, animal 18P34
[18] = SC administration, animal 18P35
[19] = ID via ingestible device, 320 psig

For “Novolin® R: regular human insulin (NOVOLIN® R)”, the “AUC of blood insulin, SC vs IJ group” value ([1]; AUC0-420 min) was “higher than that of the IJ administration group”, the Cmax blood insulin [1, 5] was 77.40 uIU/mL and the Tmax blood insulin [1, 5] was 55.63 min. For the same molecule, the Cmax blood insulin ([1]; IJ administration by jet delivery device (~40 U), animal 18P14) was 96.77 uIU/mL, the Cmax blood insulin [1, 6] was 5.03 uIU/mL and the Tmax blood insulin [1, 6] was 50 min. It also gave a Cmax blood insulin [1, 7] of 7.96 uIU/mL, a Tmax blood insulin [1, 7] of 90 min and a Cmax blood insulin [1, 8] of 48.77 uIU/mL. The Tmax blood insulin [1, 8] was 40 min, the Cmax blood insulin [1, 9] was 40.93 uIU/mL and the Tmax blood insulin [1, 9] was 20 min. For the same molecule, the Cmax blood insulin [1, 10] was 85.38 uIU/mL, the Tmax blood insulin [1, 10] was 40 min and the Cmax blood insulin [1, 11] was 207.96 uIU/mL. The Tmax blood insulin [1, 11] was 40 min, the Cmax blood insulin [1, 12] was 126.39 uIU/mL and the Tmax blood insulin [1, 12] was 90 min. It also gave a Cmax blood insulin [1, 13] of 451.00 uIU/mL, a Tmax blood insulin [1, 13] of 50 min and a Cmax blood insulin [1, 14] of 60.74 uIU/mL. The Tmax blood insulin [1, 14] was 180 min, the Cmax blood insulin [1, 15] was 354.00 uIU/mL and the Tmax blood insulin [1, 15] was 105 min. It also gave a Cmax blood insulin [1, 16] of 356.60 uIU/mL, a Tmax blood insulin [1, 16] of 30 min and a Cmax blood insulin ([1]; SC administration, animal 18P21) of 65.71 uIU/mL. It also gave a Cmax blood insulin [1, 17] of 59.18 uIU/mL, a Tmax blood insulin [1, 17] of 120 min and a Cmax blood insulin [1, 18] of 73.34 uIU/mL. For the same molecule, the Tmax blood insulin [1, 18] was 50 min, the “maximum plasma concentration Cmax, SC vs IJ group” value ([1]; in vivo, sc) was “higher than that of the IJ administration group” and the “mean dextrose infusion rate, IJ vs SC group” value ([2]; first 70 minutes after administration) was “higher in the IJ administration group”. The “mean dextrose infusion rate, IJ vs SC group” value ([2]; from 75 minutes to 420 minutes post-administration) was “higher in the SC administration group”.

In the case of dulaglutide, the Tmax ([3]; ID via 2-nozzle device 320 psig, 1.2 mg, swine plasma) is reported as 480 min, the “(AUC)T0-T240 h ± SEM” value ([3]; ID via 2-nozzle device 320 psig, 1.2 mg, one animal below detection limit excluded (N=4)) is reported as 4355.86 ± 1094.57 ^a ng · hr/mL and the “bioavailability relative to IV administration [(AUC)ID/IV*100%]” value [3, 19] is reported as “about 33%”. For the same molecule, the “bioavailability relative to SC administration [(AUC)ID/SC*100%]” value [3, 19] was “about 61%”, the “AUCID (ng·hr/mL±SEM)” value ([3]; ID via ingestible device, 320 psig, 1.2 mg, prior to exclusion of animal no. 8487, ±SEM) was 3.89 ± 0.09473 µg·h/mL and the “(AUC)T0-T240 h ± SEM” value ([3]; IV, 1.2 mg) was 16429.33 ± 600.93 ng·h/mL. For the same molecule, the “(AUC)T0-T240 h ± SEM” value ([3]; SC, 1.2 mg) was 8869 ± 887.33 ng·h/mL and the “plasma level of dulaglutide” value ([3]; one animal in Group 1 (no. 8487; ID)) was “below the limit of detection of the ELISA assay”.

In the case of glucagon, the Bioavail. [4] is given as 100.0%.

For somatropin, the Bioavail. [4] is given as 80.5%.

B1: concizumab (antibody, chains of the INN, looked up, V domains shown)
VH: EVQLVESGGGLVKPGGSLRLSCAASGFTFSNYAMSWVRQTPEKRLEWVATISRSGSYSYFPDSVQGRFTISRDNAKNSLYLQMNSLRAEDTAVYYCARLGGYDEGDAMDSWGQGTTVTVSS
VL: DIVMTQTPLSLSVTPGQPASISCKSSQSLLESDGKTYLNWYLQKPGQSPQLLIYLVSILDSGVPDRFSGSGSGTDFTLKISRVEAEDVGVYYCLQATHFPQTFGGGTKVEIK
In the case of B1, the Bioavail. [4] is given as 93.0%.
